Results: publication PMC3463815 (Scientific Reports, 2012)

Target: T1, VEGF_(34-121), 88-residue VEGF fragment displayed on S. carnosus (Homo sapiens)
T1 chain: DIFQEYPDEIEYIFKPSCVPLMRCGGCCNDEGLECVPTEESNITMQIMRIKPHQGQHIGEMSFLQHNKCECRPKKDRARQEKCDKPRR
Assay: flow cytometry on cells

B1: Avastin (antibody, V domains shown)
VH: EVQLVESGGGLVQPGGSLRLSCAASGYTFTNYGMNWVRQAPGKGLEWVGWINTYTGEPTYAADFKRRFTFSLDTSKSTAYLQMNSLRAEDTAVYYCAKYPHYYGSSHWYFDVWGQGTLVTVSS
VL: DIQMTQSPSSLSASVGDRVTITCSASQDISNYLNWYQQKPGKAPKVLIYFTSSLHSGVPSRFSGSGSGTDFTLTISSLQPEDFATYYCQQYSTVPWTFGQGTKVEIK
binding result: binds
